Patent US20080207488A1, “Method for Detecting Peptides Comprising a Cross-B Structure” (priority 2005, published 2008)
Peptide text beside a SMILES is read from it.

Tests used:
human BiP = molecular target: T1, human BiP (Homo sapiens, UniProt P11021); assay: ELISA, binding of BiP to coated (mis)folded proteins; conditions: coated protein
T1 construct: made in house; host or cells: HEK293E cells, transient transfection, protein purified from the medium
Method: (§1) The plates were blocked using Blocking reagent (Roche 1112589). A dilution series of the protein of interest was applied to the coated proteins and wells were subsequently washed using TBS-T (50 mM Tris pH 7.3, 150 mM NaCl and 0.1% Tween20). Bound protein is detected by the FLAG-tag using 1:3000 anti-FLAG-HRP (Sigma A-8592) in PBS-T, or by 1:1000 Ni-NTA-HRP (Qiagen 34530) in PBS-T. The HRP reaction Is performed using the TMB substrate (Biosource 4501103 or Tebu Bio 101TMB100-500), stopped using 10% H2SO4 and absorbance was measured at 450 nm.

[1] = molecular target: T2, human fibronectin finger 4,5 (Fn F4,5) fragment (Homo sapiens, UniProt P02751); assay: ELISA, binding of fibronectin F4,5 to coated (mis)folded proteins; conditions: coated protein, FIG. 7D-H
T2 construct: human fibronectin finger 4,5 (Fn F4,5) fragment; made in house; host or cells: HEK293E cells, transient transfection, protein purified from the medium
Method: as §1

[2] = molecular target: T3, LRP cl-IV binding to BSA-AGE (Bos taurus, UniProt P02769); assay: ELISA, interference with LRP cl-IV binding to BSA-AGE; parameters: species or system human; conditions: concentration series, 50 times diluted LRP cl-IV medium
T3 construct: made in house; host or cells: LRP cl-IV: HEK293E/S culture supernatant, 50 times diluted; BSA-AGE: glycated in house and coated
Method: To test whether amyloid-like crossbeta structure binding compounds tPA, Congo red, Thioflavin T and Thioflavin S interfere with LRP cl-IV binding to BSA-AGE, concentration series of the potential inhibitory amyloid binding moieties were tested in the presence of 50 times diluted medium containing LRP cl-IV. The following inhibitors were used: tPA, Congo red, Thioflavin T (ThT) and Thioflavin S (ThS). As a control to tPA, K2P tPA, which lacks the amyloid-like misfolded protein binding finger domain, was included in the analyses. The influence of tPA and K2P tPA was tested in the presence of 10 mM ε-amino caproic acid to avoid binding of the kringle2 domain of tPA and K2P tPA to lysine- and arginine residues. Binding buffer and K2P tPA served as negative controls in these inhibition studies. The concentration series was measured in triplicate, the values averaged and standard deviations calculated. Background signals obtained with buffer-coated wells were subtracted. Signals obtained with binding of LRP cluster IV to BSA-AGE was set arbitrarily to a reference binding of 100% and signals obtained with the concentration series of misfolded protein binding moieties and K2P tPA were calculated based on this set reference.

factor XII = molecular target: T4, factor XII (Homo sapiens, UniProt P00748); assay: Chromogenic factor XII/prekallikrein activation assay (Chromozym-PK); format: biochemical; conditions: peptide aggregates and surfaces
T4 construct: purchased Calbiochem, EMD Biosciences #233490
T4 sequence (P00748 20-615): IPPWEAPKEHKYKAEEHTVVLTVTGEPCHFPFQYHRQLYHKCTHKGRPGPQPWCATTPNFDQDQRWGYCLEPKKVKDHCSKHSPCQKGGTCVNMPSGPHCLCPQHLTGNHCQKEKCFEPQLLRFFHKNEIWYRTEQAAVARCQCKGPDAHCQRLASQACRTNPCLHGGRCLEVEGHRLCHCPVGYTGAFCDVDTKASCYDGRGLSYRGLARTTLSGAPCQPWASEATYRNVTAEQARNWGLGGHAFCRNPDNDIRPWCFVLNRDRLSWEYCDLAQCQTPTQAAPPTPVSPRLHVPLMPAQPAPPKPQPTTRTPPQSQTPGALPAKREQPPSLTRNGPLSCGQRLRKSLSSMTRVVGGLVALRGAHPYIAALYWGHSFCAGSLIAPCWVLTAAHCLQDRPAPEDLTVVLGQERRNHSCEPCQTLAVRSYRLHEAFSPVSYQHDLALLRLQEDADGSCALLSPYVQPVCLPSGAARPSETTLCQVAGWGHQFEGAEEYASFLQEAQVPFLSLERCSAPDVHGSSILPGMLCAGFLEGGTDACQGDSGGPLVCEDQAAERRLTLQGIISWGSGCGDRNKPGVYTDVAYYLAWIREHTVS
Method: (§2) Plasmin (Pls) activity was assayed as described^7. Peptides and proteins that were tested for their stimulatory ability were regularly used at 100 μg ml^−1. […] Chromogenic substrate S-2251 (Chromogenix, Instrumentation Laboratory SpA, Milano, Italy) was used to measure Pls activity. Conversion of zymogen factor XII (#233490, Calbiochem, EMD Biosciences, Inc., San Diego, Calif.) to proteolytically active factor XII (factor XIIa) was assayed by measurement of the conversion of chromogenic substrate Chromozym-PK (Roche Diagnostics, Almere, The Netherlands) by kallikrein. Chromozym-PK was used at a concentration of 0.3 mM. Factor XII, human plasma prekallikrein (#529583, Calbiochem) and human plasma cofactor high-molecular weight kininogen (#422686, Calbiochem) were used at concentrations of 1 μg ml^−1. […] Assays were performed using microtiter plates (Costar, Cambridge, Mass., USA). Peptides and proteins were tested for their ability to activate factor XII. 150 μg ml^−1 kaolin, an established activator of factor XII was used as positive control and solvent (H2O) as negative control. The conversion of Chromozym-PK was recorded kinetically at 37° C. for at least 60 minutes. Assays were done in duplicate. […] Alternatively, chromogenic substrate S-2222 (Chromogenix) was used to follow the activity of factor XII itself. With S-2222, activation of factor XII in plasma was measured, using 60% v/v plasma, diluted with substrate and H2O with or without potential cofactor. Furthermore, auto-activation of factor XII was measured by incubating 53 μg ml^−1 purified factor XII in 50 mM Tris-HCl buffer pH 7.5 with 1 mM EDTA and 0.001% v/v Triton-X100, with S-2222 and H2O with or without potential cofactor.
(§3) Formulated protein therapeutics were obtained from the local hospital pharmacy and were used as supplied by the manufacturers. […] Lyophilized therapeutics were dissolved according to the manufacturers recommendations. […] Other protein therapeutics were only kept at 4° C., and assayed for the presence of cross-β structure conformation at shown time points. Enhancement in fluorescence of ThT and Congo red was measured with all formulated protein therapeutics. For this purpose, proteins were diluted to the indicated concentrations. […] Zinc-insulin was diluted tenfold in the activation assay, GH was diluted to a final concentration of 500 μg ml^−1. Activation of factor XII and prekallikrein by the therapeutics was tested in the chromogenic factor XII assay (see above). […] After coating, plates were blocked with Blocking Reagent (Roche Diagnostics, Almere, The Netherlands).

[3] = Thioflavin T fluorescence; format: physicochemical; conditions: 25 μg ml^−1
Method: Fluorescence of ThT-protein/peptide adducts was measured as follows. […] Fluorescence was measured at 485 nm upon excitation at 435 nm. Background signals from buffer, buffer with ThT and protein/peptide solution without ThT were subtracted from corresponding measurements with protein solution incubated with ThT. […] Fluorescence was measured in triplicate on a Hitachi F-4500 fluorescence spectrophotometer (Ltd., Tokyo, Japan).
as §3
To prepare structurally altered ovalbumin (OVA) with amyloid cross-β structure conformation, purified OVA (Sigma, A-7641, lot 071k7094) was heated to 85° C. One mg ml^−1 OVA in 67 mM NaPi buffer pH 7.0, 100 mM NaCl, was heated for two cycles in PCR cups in a PTC-200 thermal cycler (MJ Research, Inc., Waltham, Mass., USA). In each cycle, OVA was heated from 30 to 85° C. at a rate of 5° C./min. Native OVA (nOVA) and heat-denatured OVA (dOVA) were tested in the ThT fluorescence assay and in the Plg-activation assay. In the fluorescence assay and in the Plg-activation assay, 25 and 100 μg ml^−1 nOVA and dOVA were tested, respectively. TEM images of nOVA and dOVA were taken to check for the presence of large aggregates. […] MSA (#126674, Calbiochem) was dissolved in 8 M urea, 100 mM Tris-HCl pH 8.2, at 10 mg ml^−1 final concentration. Dithiothreitol (DTT) was added to a final concentration of 10 mM. Air was replaced by N2 and the solution was incubated for 2 h at room temperature. Then, the solution was transferred to ice and iodoacetamide was added from a 1 M stock to a final concentration of 20 mM. […] Alkyl-MSA was dialyzed against H2O before use. […] In the ThT-fluorescence assay 25 μg ml^−1 nMSA and alkyl-MSA were tested, and in the Plg-activation assay 100 μg ml^−1 was tested. The presence of aggregates or fibrils was analyzed using TEM. […]
Protein therapeutics were obtained from the local hospital pharmacy and analyzed within the expiry limits as stated by the manufacturers.

tPA = molecular target: T5, tPA (Homo sapiens, UniProt P00750); assay: Plasminogen-activation assay (tPA-mediated Plg to Pls, S-2251); format: biochemical; conditions: FIG. 6E, G
T5 construct: purchased Boehringer-Ingelheim (Actilyse, Alteplase)
Method: as §2, §3
Purification of β2-glycoprotein I (β2GPI) was performed according to established methods^11,12. Recombinant human β2GPI was made using insect cells and purified as described^11. Plasma derived β2GPI as used in a factor XII ELISA, the chromogenic Plg-activation assay and in the anti-phospholipid syndrome antibody ELISA (see below), was purified from fresh human plasma as described^12.
To prepare structurally altered ovalbumin (OVA) with amyloid cross-β structure conformation, purified OVA (Sigma, A-7641, lot 071k7094) was heated to 85° C. One mg ml^−1 OVA in 67 mM NaPi buffer pH 7.0, 100 mM NaCl, was heated for two cycles in PCR cups in a PTC-200 thermal cycler (MJ Research, Inc., Waltham, Mass., USA). In each cycle, OVA was heated from 30 to 85° C. at a rate of 5° C./min. Native OVA (nOVA) and heat-denatured OVA (dOVA) were tested in the ThT fluorescence assay and in the Plg-activation assay. In the fluorescence assay and in the Plg-activation assay, 25 and 100 μg ml^−1 nOVA and dOVA were tested, respectively. TEM images of nOVA and dOVA were taken to check for the presence of large aggregates. […] MSA (#126674, Calbiochem) was dissolved in 8 M urea, 100 mM Tris-HCl pH 8.2, at 10 mg ml^−1 final concentration.

T3 sequence (P02769 25-607): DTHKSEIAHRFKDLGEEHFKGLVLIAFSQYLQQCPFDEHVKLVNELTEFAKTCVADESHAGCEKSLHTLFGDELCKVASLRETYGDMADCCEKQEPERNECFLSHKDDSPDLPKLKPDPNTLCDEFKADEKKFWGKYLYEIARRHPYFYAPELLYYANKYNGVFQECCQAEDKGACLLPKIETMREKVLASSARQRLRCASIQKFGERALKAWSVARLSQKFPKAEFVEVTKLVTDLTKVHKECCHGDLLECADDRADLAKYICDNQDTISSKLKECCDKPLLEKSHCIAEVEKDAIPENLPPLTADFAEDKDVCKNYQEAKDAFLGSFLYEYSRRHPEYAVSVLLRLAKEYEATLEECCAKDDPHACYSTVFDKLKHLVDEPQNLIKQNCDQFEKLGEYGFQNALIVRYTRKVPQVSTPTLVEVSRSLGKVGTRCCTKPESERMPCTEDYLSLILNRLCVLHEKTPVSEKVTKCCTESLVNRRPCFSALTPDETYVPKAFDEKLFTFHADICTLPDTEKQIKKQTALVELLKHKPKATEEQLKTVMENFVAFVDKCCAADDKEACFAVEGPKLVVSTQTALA
T5 sequence (P00750 36-562): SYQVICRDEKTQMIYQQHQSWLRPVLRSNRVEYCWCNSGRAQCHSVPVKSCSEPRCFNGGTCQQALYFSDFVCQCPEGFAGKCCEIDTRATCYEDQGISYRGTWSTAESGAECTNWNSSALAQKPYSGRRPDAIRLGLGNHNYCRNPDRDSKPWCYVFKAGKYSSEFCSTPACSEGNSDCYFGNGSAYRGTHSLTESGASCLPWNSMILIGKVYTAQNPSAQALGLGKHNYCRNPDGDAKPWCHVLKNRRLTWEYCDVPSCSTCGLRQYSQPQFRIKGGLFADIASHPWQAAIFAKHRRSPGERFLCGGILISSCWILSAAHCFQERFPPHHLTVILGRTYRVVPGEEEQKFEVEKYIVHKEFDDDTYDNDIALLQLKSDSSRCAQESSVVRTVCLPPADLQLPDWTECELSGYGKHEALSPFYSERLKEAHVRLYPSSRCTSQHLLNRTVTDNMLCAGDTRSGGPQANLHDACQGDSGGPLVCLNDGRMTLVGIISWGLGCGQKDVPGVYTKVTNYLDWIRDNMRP
T2 sequence (P02751 182-276 limits assumed): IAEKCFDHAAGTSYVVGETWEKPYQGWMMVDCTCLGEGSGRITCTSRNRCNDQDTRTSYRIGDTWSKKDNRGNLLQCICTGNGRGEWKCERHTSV
T1 sequence (P11021 19-654): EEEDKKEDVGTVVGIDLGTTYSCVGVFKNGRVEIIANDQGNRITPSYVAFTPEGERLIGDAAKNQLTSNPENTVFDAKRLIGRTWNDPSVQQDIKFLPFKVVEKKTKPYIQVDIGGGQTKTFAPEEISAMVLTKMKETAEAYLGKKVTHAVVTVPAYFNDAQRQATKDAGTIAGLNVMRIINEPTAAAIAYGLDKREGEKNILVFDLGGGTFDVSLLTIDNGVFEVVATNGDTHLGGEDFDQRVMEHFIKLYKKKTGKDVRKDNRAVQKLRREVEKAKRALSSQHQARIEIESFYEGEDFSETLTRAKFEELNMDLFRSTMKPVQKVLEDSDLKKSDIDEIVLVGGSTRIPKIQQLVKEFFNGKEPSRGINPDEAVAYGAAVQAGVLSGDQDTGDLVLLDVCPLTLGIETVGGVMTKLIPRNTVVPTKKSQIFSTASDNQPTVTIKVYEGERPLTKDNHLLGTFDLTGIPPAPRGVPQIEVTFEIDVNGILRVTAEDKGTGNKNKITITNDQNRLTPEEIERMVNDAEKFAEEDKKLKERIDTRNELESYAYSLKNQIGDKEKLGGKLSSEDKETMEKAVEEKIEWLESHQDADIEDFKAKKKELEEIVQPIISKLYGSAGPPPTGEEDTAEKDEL

heat-denatured BSA: heat-denatured bovine serum albumin
binding of BiP (detection anti-FLAG-HRP) (human BiP): not

reduced and alkylated lysozyme: reduced and alkylated lysozyme
affinity of fibronectin F4,5 (detection anti-FLAG HRP) [1]: high affinity

Cc1ccc2c(c1)sc(-c1ccc(N(C)C)cc1)[n+]2C [ThT, Thioflavin T]
influence on binding of LRP cl-IV to BSA-AGE [2]: do not interfere

CC[C@H](C)[C@H](NC(=O)CNC(=O)[C@@H](NC(=O)[C@H](CC(=O)O)NC(=O)[C@@H](NC(=O)[C@H](CC(=O)O)NC(=O)[C@@H](NC(=O)[C@H](CCC(=O)O)NC(=O)[C@H](CC(C)C)NC(=O)[C@H](CCCNC(=N)N)NC(=O)[C@@H](N)CCCCN)C(C)C)[C@@H](C)CC)[C@@H](C)CC)C(=O)N[C@@H](CCCNC(=N)N)C(=O)N[C@@H](CO)C(=O)O [FP13 K157G] (H-KRLEVDIDIGIRS-OH)
factor XII activation (kallikrein, Chromozym-PK conversion) (factor XII): stimulate the activation of factor XII

heat-denatured glucagon: glucagon kept at 37° C. at low pH in HCl
ThT fluorescence enhancement of native and denatured proteins [3]: enhanced ThT fluorescence to a large extent
tPA activating potential of native and denatured glucagon and Etanercept (tPA): potent activator of tPA

Thioflavin S [ThS]
influence on binding of LRP cl-IV to BSA-AGE [2]: inhibit binding of LRP cl-IV to BSA-AGE to a large extent

Nc1c(/N=N/c2ccc(-c3ccc(/N=N/c4cc(S(=O)(=O)O)c5ccccc5c4N)cc3)cc2)cc(S(=O)(=O)O)c2ccccc12 [Congo red]
influence on binding of LRP cl-IV to BSA-AGE [2]: inhibit binding of LRP cl-IV to BSA-AGE to a large extent

mIAPP: non-amyloid control peptide
factor XII activation (kallikrein, Chromozym-PK conversion) (factor XII): do not activate factor XII
